Non-standard residues stand in square brackets, D forms with d. pY = N[C@@H](Cc1ccc(OP(=O)(O)O)cc1)C(=O)O

The target in test [1] is recombinant full-length human Grb2 (human, UniProt P62993-1 1-217). The experiment in a line: ITC. For orientation: In ITC the heat of successive injections is recorded.
Test [2] concerns the target recombinant full-length human CrkII (human, UniProt P46108-1 1-304). The experiment in a line: ITC.

Chain of recombinant full-length human CrkII (P46108 whole entry): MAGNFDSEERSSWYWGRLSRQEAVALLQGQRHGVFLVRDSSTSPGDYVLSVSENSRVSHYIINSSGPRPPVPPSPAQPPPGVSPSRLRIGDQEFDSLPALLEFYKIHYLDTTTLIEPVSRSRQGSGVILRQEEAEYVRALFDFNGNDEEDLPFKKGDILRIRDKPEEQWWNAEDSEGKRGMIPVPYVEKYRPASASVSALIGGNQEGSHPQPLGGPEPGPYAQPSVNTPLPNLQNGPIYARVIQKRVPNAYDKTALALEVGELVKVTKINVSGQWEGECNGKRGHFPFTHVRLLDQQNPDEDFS
Chain of recombinant full-length human Grb2 (P62993 whole entry): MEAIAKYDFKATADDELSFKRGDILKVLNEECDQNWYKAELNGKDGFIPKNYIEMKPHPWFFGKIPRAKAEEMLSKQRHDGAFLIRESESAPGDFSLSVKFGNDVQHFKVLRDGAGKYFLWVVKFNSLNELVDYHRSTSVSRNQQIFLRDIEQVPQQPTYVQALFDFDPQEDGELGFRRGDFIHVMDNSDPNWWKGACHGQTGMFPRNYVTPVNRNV

Ac-T[pY]SNLGQ-NH2 [PEAK3 phosphorylated peptide Ac-T(pY)SNLGQ-NH2]: the “stoichiometry N” value in test [1] and in test [2] was 1 throughout. Besides, the Kd (as a rule, the concentration at which binding is half-saturated) in test [2] was 7.8 µM.

(Values after article doi:10.1101/2021.02.17.431740 (bioRxiv, 2021).)
